Here are results for two molecules from patent US20260274933A1 (Innovent, published 2026).

The target in assay [1] is T1, human VEGF165 (R&D) (human, UniProt P15692-4 27-191).
T1 construct: Antigen of the ForteBio assay
The experiment in a line: BLI (ForteBio), bivalent binding.

In assay [2] the target is T1, human VEGF165 (R&D). Nature of the assay: BLI (ForteBio), monovalent binding. On the technique in general: BLI is a label-free optical method that tracks binding on a fibre tip over time.
Assay [3] has as its target T1, human VEGF165 (R&D). Nature of the assay: BLI (ForteBio), bivalent binding; * dissociation constant exceeding ForteBio detection limits.
For assay [4], the target named is T2, biotin-labeled VEGF A165 (ACRO, Catalog No. VE5-H8210) (human, UniProt P15692-4 27-191, biotin-labeled).
T2 construct: also called hVEGF A
T2 sequence (P15692 other isoform, or with tags, fused parts or gaps limits assumed): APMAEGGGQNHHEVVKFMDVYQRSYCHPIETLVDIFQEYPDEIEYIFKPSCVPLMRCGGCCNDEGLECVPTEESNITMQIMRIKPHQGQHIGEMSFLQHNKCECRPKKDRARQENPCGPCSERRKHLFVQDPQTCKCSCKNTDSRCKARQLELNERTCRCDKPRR
Nature of the assay: blocking ELISA: biotin VEGF A165 captured on streptavidin, binding of VEGFR-Fc blocked; value printed as EC50 in the table under the curves, unit from the axis. As for the experimental part:
SA (Thermo, Catalog No. 21125) was diluted to 1 μg/mL, and 100 μL/well of SA was plated in a microplate at 4° C. overnight. The plate was washed 3 times with PBST and blocked with 3% BSA for 1.5 h. […] The plate was washed 6 times with PBST, the color development was performed with TMB for 5 min, and OD450 nm was read after stopping.
Background: ELISA stands for enzyme-linked immunosorbent assay.

Assay [5] deals with T3, human Ang2 (human, UniProt O15123 19-496, limits assumed).
T3 construct: Antigen of the ForteBio assay; also called human Ang2 (Beijing Sino Biological)
T3 sequence (looked up): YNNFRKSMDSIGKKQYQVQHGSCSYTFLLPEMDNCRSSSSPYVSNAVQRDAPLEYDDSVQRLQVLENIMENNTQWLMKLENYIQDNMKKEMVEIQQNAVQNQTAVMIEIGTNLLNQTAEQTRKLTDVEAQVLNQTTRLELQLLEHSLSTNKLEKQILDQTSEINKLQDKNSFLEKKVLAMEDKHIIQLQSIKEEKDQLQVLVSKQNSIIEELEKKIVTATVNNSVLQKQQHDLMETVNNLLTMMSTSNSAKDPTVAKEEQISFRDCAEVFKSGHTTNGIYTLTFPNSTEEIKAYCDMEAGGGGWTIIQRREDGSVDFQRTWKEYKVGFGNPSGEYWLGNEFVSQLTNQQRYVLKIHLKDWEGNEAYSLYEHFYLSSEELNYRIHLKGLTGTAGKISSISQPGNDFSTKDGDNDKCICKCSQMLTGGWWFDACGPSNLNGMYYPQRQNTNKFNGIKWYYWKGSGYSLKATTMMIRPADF
Nature of the assay: BLI (ForteBio), bivalent binding.

Assay [6] deals with T4, hAng2-biotin (R&D, Catalog No. BT623B/CF) (human, UniProt O15123 68-496, limits assumed, biotinylated).
T4 construct: also called Ang2-Bio (R&D, Catalog No. BT623B/CF); Recombinant Biotinylated hAngiopoietin-2 protein (R&D)
T4 sequence (looked up): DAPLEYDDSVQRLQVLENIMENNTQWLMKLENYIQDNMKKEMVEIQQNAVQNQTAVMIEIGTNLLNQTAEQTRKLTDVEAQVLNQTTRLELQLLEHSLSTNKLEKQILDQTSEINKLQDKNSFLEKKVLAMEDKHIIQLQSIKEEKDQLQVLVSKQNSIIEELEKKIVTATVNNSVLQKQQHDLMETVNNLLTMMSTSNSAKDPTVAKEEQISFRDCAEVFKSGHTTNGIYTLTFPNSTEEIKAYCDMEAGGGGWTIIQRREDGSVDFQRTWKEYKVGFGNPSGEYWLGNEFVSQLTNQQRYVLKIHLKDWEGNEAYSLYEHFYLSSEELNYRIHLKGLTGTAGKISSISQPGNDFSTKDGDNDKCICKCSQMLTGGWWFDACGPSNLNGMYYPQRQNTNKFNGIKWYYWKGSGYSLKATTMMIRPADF
The experiment in a line: blocking ELISA: Tie2-Fc coated, binding of hAng2-biotin blocked. How it is done:
The plate was washed 3 times with PBST and blocked with 3% BSA for 1.5 h. […] The plate was washed 3 times with PBST, Avidin HRP (1:2000) was added, and the plate was incubated for 35 min. The plate was washed 6 times with PBST, the color development was performed with TMB for 5 min, and OD450 nm was read after stopping.

Assay [7] addresses T3, human Ang2. The experiment in a line: BLI (ForteBio), bivalent binding; * dissociation constant exceeding ForteBio detection limits.

T1 sequence (P15692 other isoform, or with tags, fused parts or gaps limits assumed): as the sequence (P15692 other isoform, or with tags, fused parts or gaps limits assumed) above

B1: LA42F8 (VEGFA VHH) (VHH)
VHH: QLQLVESGGGLVQPGGSLRLSCAASGFNLDYYPIGWFRQAPGKEREGVSCISSVGSTNYADSVKGRFTISRDNAKNTVYLQMNSLKPEDTAVYYCAADPLCSALILPPPFLSWGQGTQVTVSS
notes: Alpaca anti-VEGF A VHH; also called LA42F8 supernatant
As for B1, in the assay with human VEGF165 (R&D) [1], the Kd came to 843 pM and the kon amounted to 237000 M⁻¹ s⁻¹. Also, in the assay with human VEGF165 (R&D) [2], the Kd was 6110 pM, the koff was 0.00116 s⁻¹ and the kon stood at 189000 M⁻¹ s⁻¹. The koff with human VEGF165 (R&D) [3] is at most 0.0002 s⁻¹. In assay [4], this molecule registered an EC50 of 0.0149 µg/mL.

B2: LA24C11.10 (Ang2 VHH) (VHH)
VHH: EVQLLESGGGLVQPGGSLRLSCAASGFALDYYAIGWFRQAPGKGLEGVSCISSGEGSTYYADSVKGRFTISRDNSKNTVYLQMNSLRAEDTAVYYCATDSRGDDVACEGLRRNEYDYWGQGTLVTVSS
notes: Humanized anti-Ang2 VHH; also called hz24C11.10; LA24C11.0
In the assay with human Ang2 [5], B2 came in with a Kd of at most 828 pM and a kon of 242000 M⁻¹ s⁻¹. Further, the “IC50 (read off the curve)” value in assay [6] was about 0.06 µg/mL. In the assay with human Ang2 [7], this molecule returned a koff of at most 0.0002 s⁻¹.

As a reminder, the kon is a measure of how fast the partners come together. Read a low kon as slower complex formation. Usually koff stands for the first-order rate constant of dissociation. A low value points to a long-lived complex. In general, EC50 refers to the midpoint of the concentration-response curve. Low readings indicate a more potent agent, high ones a less potent agent.
